Test [1] has as its target T1, methylamine-treated C3 (C3met) (human, UniProt P01024 23-667; P01024 672-1663).
T1 construct: mature; also called C3b-like molecule; [125I]-C3met
Briefly: SPR (Biacore 2000), UspA protein amine-coupled on CM5 chip, C3met injected, steady state affinity model; UspA1^50-770 on the chip.

The target in test [2] is T2, Engelbreth-Holm-Swarm mouse sarcoma laminin (Sigma) (mouse, UniProt P19137 25-3083; P02469 22-1786; P02468 34-1607).
T2 construct: also called soluble laminin
The test is described as follows: ELISA: 40 nM UspA1 50-770 coated, soluble laminin titrated in three-fold steps 0.03-60 µg/ml, rabbit anti-laminin pAb + HRP anti-rabbit pAb.

T1 sequence (P01024 23-667 limits assumed, chain 1 of 2): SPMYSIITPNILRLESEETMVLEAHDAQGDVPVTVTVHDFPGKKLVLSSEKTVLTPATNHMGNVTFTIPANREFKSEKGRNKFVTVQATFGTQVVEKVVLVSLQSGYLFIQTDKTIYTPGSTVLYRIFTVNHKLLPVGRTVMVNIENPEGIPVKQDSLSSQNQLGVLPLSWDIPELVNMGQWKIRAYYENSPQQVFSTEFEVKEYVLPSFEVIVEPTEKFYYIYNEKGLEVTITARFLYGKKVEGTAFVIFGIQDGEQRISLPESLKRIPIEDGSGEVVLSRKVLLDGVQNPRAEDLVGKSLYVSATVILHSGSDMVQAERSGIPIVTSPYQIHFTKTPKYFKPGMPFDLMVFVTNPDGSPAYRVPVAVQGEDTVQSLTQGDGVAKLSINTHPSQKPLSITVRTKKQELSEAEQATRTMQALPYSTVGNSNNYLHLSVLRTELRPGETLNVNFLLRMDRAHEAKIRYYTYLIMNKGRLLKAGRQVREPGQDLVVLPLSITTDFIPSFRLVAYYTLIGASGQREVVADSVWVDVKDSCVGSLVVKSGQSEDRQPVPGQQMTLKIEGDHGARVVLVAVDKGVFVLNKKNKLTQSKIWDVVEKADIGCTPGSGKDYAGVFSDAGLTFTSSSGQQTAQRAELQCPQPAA
T1 sequence (P01024 672-1663 limits assumed, chain 2 of 2): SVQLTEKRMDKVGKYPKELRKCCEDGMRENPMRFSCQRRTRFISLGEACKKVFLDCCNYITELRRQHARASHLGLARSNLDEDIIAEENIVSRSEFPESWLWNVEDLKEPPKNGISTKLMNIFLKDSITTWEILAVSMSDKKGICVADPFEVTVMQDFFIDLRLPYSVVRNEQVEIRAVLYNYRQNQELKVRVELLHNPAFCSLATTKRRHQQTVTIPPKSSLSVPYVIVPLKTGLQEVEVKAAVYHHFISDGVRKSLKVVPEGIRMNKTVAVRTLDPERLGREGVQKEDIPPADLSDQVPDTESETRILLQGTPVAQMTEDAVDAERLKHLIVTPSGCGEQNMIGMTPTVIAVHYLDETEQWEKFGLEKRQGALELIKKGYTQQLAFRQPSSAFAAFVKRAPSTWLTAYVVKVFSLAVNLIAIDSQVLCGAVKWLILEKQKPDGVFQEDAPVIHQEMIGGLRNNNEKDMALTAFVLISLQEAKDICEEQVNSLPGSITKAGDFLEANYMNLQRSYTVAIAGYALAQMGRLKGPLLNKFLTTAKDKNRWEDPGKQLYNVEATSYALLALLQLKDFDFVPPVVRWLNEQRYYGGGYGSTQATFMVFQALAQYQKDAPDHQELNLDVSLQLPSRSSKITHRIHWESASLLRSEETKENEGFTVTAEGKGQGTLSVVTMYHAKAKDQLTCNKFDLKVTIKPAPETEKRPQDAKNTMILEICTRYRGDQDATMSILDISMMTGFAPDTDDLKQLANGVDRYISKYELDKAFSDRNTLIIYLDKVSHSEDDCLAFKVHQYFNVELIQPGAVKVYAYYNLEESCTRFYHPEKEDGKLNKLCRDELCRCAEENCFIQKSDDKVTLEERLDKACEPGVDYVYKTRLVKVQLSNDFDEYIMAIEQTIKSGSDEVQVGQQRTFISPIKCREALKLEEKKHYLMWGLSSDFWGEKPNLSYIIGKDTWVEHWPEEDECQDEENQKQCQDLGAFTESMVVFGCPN

B1: recombinant UspA1^50-770 (M. catarrhalis Bc5) (other)
chain: KVGKATNKISGGDNNTANGTYLTIGGGDYNKTKGRYSTIGGGLFNEATNEYSTIGSGGYNKAKGRYSTIGGGGYNEATNQYSTIGGGDNNTAKGRYSTIGGGGYNEATIENSTVGGGGYNQAKGRNSTVAGGYNNEATGTDSTIAGGRKNQATGKGSFAAGIDNKANADNAVALGNKNTIEGENSVAIGSNNTVKKGQQNVFILGSNTDTTNAQNGSVLLGHNTAGKAATIVNSAEVGGLSLTGFAGASKTGNGTVSVGKKGKERQIVHVGAGEISDTSTDAVNGSQLHVLATVVAQNKADIKDLDDEVGLLGEEINSLEGEIFNNQDAIAKNQADIKTLESNVEEGLLDLSGRLLDQKADIDNNINNIYELAQQQDQHSSDIKTLKNNVEEGLLDLSGRLIDQKADLTKDIKALESNVEEGLLDLSGRLIDQKADIAKNQADIAQNQTDIQDLAAYNELQDAYAKQQTEAIDALNKASSANTDRIATAELGIAENKKDAQIAKAQANENKDGIAKNQADIQLHDKKITNLGILHSMVARAVGNNTQGVATNKADIAKNQADIANNIKNIYELAQQQDQHSSDIKTLAKVSAANTDRIAKNKAEADASFETLTKNQNTLIEQGEALVEQNKAINQELEGFAAHADVQDKQILQNQADITTNKTAIEQNINRTVANGFEIEKNKAGIATNKQELILQNDRLNRINETNNHQDQKIDQLGYAL
notes: also called UspA1^56-770 [sic]; UspA1^50-7"
As to B1, the affinity in test [1], expressed as Kd, was 14 µM. Also, in test [2], the binding result is “binds”.

(Values after patent publication US20130129763A1 (ARNE FORSGREN, published 2013).)
